These results are taken from the supplement of paper PMC7877785.

± gives the uncertainty stated by the source.

The nature of this data set: self-splicing fitness, log relative to wild type (ln ratio); higher = more splicing; Tetrahymena group I intron in knt gene, E. coli kanamycin selection, DiMSum; sequences stand for … in CUCUCU…GGAGGGAAAAGUUAUCAGGCAUGCACCUGGUAGCUAGUCUUUAAACCAAUAGAUUGCAUCGGUUUAAAAGGCAAGACCGUCAAAUUGCGGGAAAGGGGUCAACAGCCGUUCAGUACCAAGUCUCAGGGGAAACUUUGAGAUGGCCUUGCAAAGGGUAUGGUAAUAAGCUGACGGACAUGGUCCUAACCACGCAGCCAAGUCCUAAGUCAACAGAUCUUCUGUUGAUAUGGAUGCAGUUCACAGACUAAAUGUCGGUCGGGGAAGAUGUAUUCUUCUCAUAAGAUAUAGUCGGACCUCUCCUUAAUGGGAGCUAGCGGAUGAAGUGAUGCAACACUGGAGCCGCUGGGAACUAAUUUGUAUGCGAAAGUAUAUUGAUUAGUUUUGGAGUACUCGUGGUCG
In short, it runs like this:
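A randomised library covering all eight P1ex-region intron nucleotides was built with the intron in the knt kanamycin-resistance gene on pET-22b(+) and held in E. coli BL21(DE3). Cells were grown overnight at 37°C or 30°C on LB agar, with or without 25 μg/mL kanamycin, plus 100 μg/mL carbenicillin, 50 μM IPTG and 0.2% rhamnose, and pooled colonies were amplicon-sequenced on an Illumina HiSeq 2500. DiMSum fitness is the error-weighted combination of wild-type-normalised replicate fold changes, kanamycin versus none.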

Take GGUUAGCAAUAUUACGUGCU: the “self-splicing fitness (ln)” value is, setting by setting: (30 °C) -2.76 ± 0.46; (37 °C) -2.35 ± 0.3.

In the case of GCAGAGCAAUAUUACGCUGU, the “self-splicing fitness (ln)” value is -2.66 ± 0.18 (30 °C) and -2.87 ± 0.23 (37 °C).

For the sequence CUAUAGCAAUAUUACGUGGC, the “self-splicing fitness (ln)” value is, setting by setting: (30 °C) -2.86 ± 0.24; (37 °C) -1.8 ± 0.28.

For the sequence AUGCAGCAAUAUUACGAGCA, the “self-splicing fitness (ln)” value (30 °C) was -0.52 ± 0.089 and the “self-splicing fitness (ln)” value (37 °C) was -0.627 ± 0.097.

Consider AAGAAGCAAUAUUACGUCAC, for which the “self-splicing fitness (ln)” value (30 °C) is -3.46 ± 0.21 and the “self-splicing fitness (ln)” value (37 °C) was -3 ± 0.28.

With UCAGAGCAAUAUUACGGAAG, the “self-splicing fitness (ln)” value by setting is: (30 °C) -3.05 ± 0.26; (37 °C) -3.41 ± 0.37.

Regarding GACCAGCAAUAUUACGAUUC, the “self-splicing fitness (ln)” value (30 °C) is -0.023 ± 0.075 and the “self-splicing fitness (ln)” value (37 °C) was -0.543 ± 0.08.

Turning to GACAAGCAAUAUUACGUAAG, the “self-splicing fitness (ln)” value was -2.11 ± 0.12 (30 °C) and -1.36 ± 0.14 (37 °C).

For the sequence CCAAAGCAAUAUUACGGAGA, the “self-splicing fitness (ln)” value reads like this: (30 °C) -4.23 ± 0.42; (37 °C) -1.92 ± 0.23.

In the case of GCACAGCAAUAUUACGGUUG, the “self-splicing fitness (ln)” value runs as follows: (30 °C) -2.18 ± 0.059; (37 °C) -1.02 ± 0.072.

Regarding GUUGAGCAAUAUUACGUAAG, the “self-splicing fitness (ln)” value runs as follows: (30 °C) -2.08 ± 0.18; (37 °C) -1.17 ± 0.19.

On to CCUUAGCAAUAUUACGCAUC, for which the “self-splicing fitness (ln)” value (37 °C) is -2.77 ± 0.48.

With UCAUAGCAAUAUUACGCGAG, the “self-splicing fitness (ln)” value (30 °C) is -1.52 ± 0.15 and the “self-splicing fitness (ln)” value (37 °C) was -0.957 ± 0.15.

In the case of CGUAAGCAAUAUUACGUGUU, the “self-splicing fitness (ln)” value is -2.37 ± 0.1 (30 °C) and -3.63 ± 0.2 (37 °C).

For the sequence AUCCAGCAAUAUUACGCCCG, the “self-splicing fitness (ln)” value reads like this: (30 °C) -1.84 ± 0.38; (37 °C) -1.04 ± 0.37.

Turning to CGUAAGCAAUAUUACGUUCG, the “self-splicing fitness (ln)” value (30 °C) is -0.989 ± 0.056 and the “self-splicing fitness (ln)” value (37 °C) is -0.453 ± 0.078.

With CGGUAGCAAUAUUACGUAAA, the “self-splicing fitness (ln)” value was -1.14 ± 0.08 (30 °C) and -2.33 ± 0.17 (37 °C).

For the sequence CUUGAGCAAUAUUACGAGAG, the “self-splicing fitness (ln)” value (37 °C) is -1.44 ± 0.24.

Turning to GCGGAGCAAUAUUACGUUAC, the “self-splicing fitness (ln)” value (30 °C) was -1.51 ± 0.22 and the “self-splicing fitness (ln)” value (37 °C) is -2.36 ± 0.39.

For GGUGAGCAAUAUUACGAACC, the “self-splicing fitness (ln)” value (37 °C) was -2.72 ± 0.22.

For the sequence AACGAGCAAUAUUACGGGGC, the “self-splicing fitness (ln)” value runs as follows: (30 °C) -4.03 ± 0.27; (37 °C) -3.46 ± 0.35.

As to GCGGAGCAAUAUUACGAGUU, the “self-splicing fitness (ln)” value was -3.16 ± 0.31 (30 °C) and -1.91 ± 0.25 (37 °C).

For the sequence CAACAGCAAUAUUACGGCUU, the “self-splicing fitness (ln)” value is, setting by setting: (30 °C) -1.88 ± 0.082; (37 °C) -0.875 ± 0.087.

Regarding CUAAAGCAAUAUUACGGGUC, the “self-splicing fitness (ln)” value is, setting by setting: (30 °C) -3.75 ± 0.21; (37 °C) -3.33 ± 0.37.

Consider UGCCAGCAAUAUUACGUCAU, for which the “self-splicing fitness (ln)” value runs as follows: (30 °C) -3 ± 0.16; (37 °C) -2.38 ± 0.18.

Turning to UCUAAGCAAUAUUACGACGC, the “self-splicing fitness (ln)” value is -0.443 ± 0.12 (30 °C) and -0.398 ± 0.21 (37 °C).

On to GUUCAGCAAUAUUACGCCGA, for which the “self-splicing fitness (ln)” value by setting is: (30 °C) -2.43 ± 0.31; (37 °C) -1.34 ± 0.29.

As for CAUGAGCAAUAUUACGAGCA, the “self-splicing fitness (ln)” value runs as follows: (30 °C) -3.68 ± 0.31; (37 °C) -2.56 ± 0.23.

In the case of UCUCAGCAAUAUUACGUGUA, the “self-splicing fitness (ln)” value is, setting by setting: (30 °C) -1.47 ± 0.089; (37 °C) -0.902 ± 0.08.

Regarding AGCCAGCAAUAUUACGCUUA, the “self-splicing fitness (ln)” value reads like this: (30 °C) -2.09 ± 0.11; (37 °C) -1.4 ± 0.093.

For ACAAAGCAAUAUUACGAAUG, the “self-splicing fitness (ln)” value was -1.68 ± 0.057 (30 °C) and -1.02 ± 0.085 (37 °C).

With AACGAGCAAUAUUACGUUGC, the “self-splicing fitness (ln)” value by setting is: (30 °C) -4.01 ± 0.18; (37 °C) -3.16 ± 0.19.

Turning to AACAAGCAAUAUUACGGCGC, the “self-splicing fitness (ln)” value (30 °C) is -0.737 ± 0.1 and the “self-splicing fitness (ln)” value (37 °C) came to 0.0559 ± 0.12.

For the sequence ACGGAGCAAUAUUACGCGGC, the “self-splicing fitness (ln)” value (30 °C) was -3.42 ± 0.44.
